Results taken from paper doi:10.1101/271593 (bioRxiv, 2018).

What was measured:
native MS = molecular target: the molecule itself; experiment: native MS
crystal structure = molecular target: the molecule itself; experiment: crystal structure

B1: HsMTHFR_(1-656) treated with calf intestine alkaline phosphatase (dephosphorylated) (enzyme)
chain: not shown
stoichiometry N (native MS): 2

B2: HsMTHFR_(38-644) (domain or fragment)
chain: not shown
stoichiometry N (crystal structure): 2
